Reference: publication PMC10040874

Assays:
[1] = target: Drosophila melanogaster CNNM CBS-pair domain, GST-tagged (D. melanogaster); experiment: ITC; VP-ITC, 20 °C, 20 mM Hepes pH 7.5, 100 mM NaCl, 5 mM TCEP; GST-CBS-pairs titrated with PRL; single site-binding model
[2] = target: Naegleria fowleri CNNM CBS-pair domain (N. fowleri); experiment: ITC; conditions: enzyme

Chain of Drosophila melanogaster CNNM CBS-pair domain, GST-tagged (D. melanogaster) (A0A0B7P9G0 362-515): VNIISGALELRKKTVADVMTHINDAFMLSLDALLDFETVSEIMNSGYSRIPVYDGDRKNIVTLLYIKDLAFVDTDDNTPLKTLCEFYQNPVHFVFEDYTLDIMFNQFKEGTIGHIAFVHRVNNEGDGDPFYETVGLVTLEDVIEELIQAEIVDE

Substance	fold decrease of affinity against wild type [1] [fold]	Ka [2] [M⁻¹]	Kd [2] [µM]
Drosophila melanogaster PRL R143E (from UniProt O61722 1-176) (enzyme)	20	–	–
Naegleria fowleri PRL	–	688000	1.5
Drosophila melanogaster PRL C109D (from UniProt O61722 1-176)	< 2	–	–
